The data set has as its system Escherichia coli TOP10. Kind of data set: shrunken log2 fold change of peptide-encoding DNA abundance (4.5 h post-induction vs induction); higher = less antimicrobial activity (less host growth inhibition). The note with it: time post-induction: 4.5 h; library: site-saturation at positions 5, 18, 19, 20.
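Also: peptides expressed intracellularly from a pBAD plasmid library in pooled LB shake-flask culture, induced with 0.3% L-arabinose, DNA abundance read by NGS, three biological replicates, DESeq2 with apeglm shrinkage.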

Consider RRIRGRPPRLPRPRPRPQYMPRP, for which the “shrunken log2 fold change” value was -0.195.

Take RRIRMRPPRLPRPRPRPPSDPRP: the “shrunken log2 fold change” value was 1.06.

On to RRIRERPPRLPRPRPRPGPWPRP, for which the “shrunken log2 fold change” value stood at 0.186.

As for RRIRLRPPRLPRPRPRPLAYPRP, the “shrunken log2 fold change” value was -0.264.

As to RRIRDRPPRLPRPRPRPSIDPRP, the “shrunken log2 fold change” value was -0.145.

Take RRIRQRPPRLPRPRPRPKTSPRP: the “shrunken log2 fold change” value is -0.15.

Turning to RRIRFRPPRLPRPRPRPQQHPRP, the “shrunken log2 fold change” value is -0.38.

Regarding RRIRLRPPRLPRPRPRPVGCPRP, the “shrunken log2 fold change” value came to 0.226.

As for RRIRHRPPRLPRPRPRPGMGPRP, the “shrunken log2 fold change” value came out at 0.0516.

RRIRPRPPRLPRPRPRPKCPPRP: the “shrunken log2 fold change” value was 0.131.

Regarding RRIRNRPPRLPRPRPRPGPQPRP, the “shrunken log2 fold change” value worked out at 0.0395.

As for RRIRQRPPRLPRPRPRPANYPRP, the “shrunken log2 fold change” value was -0.0497.

With RRIRDRPPRLPRPRPRPWMRPRP, the “shrunken log2 fold change” value is 0.013.

With RRIRGRPPRLPRPRPRPKINPRP, the “shrunken log2 fold change” value amounted to 0.426.

For RRIRMRPPRLPRPRPRPCLHPRP, the “shrunken log2 fold change” value is -0.608.

Turning to RRIRERPPRLPRPRPRPMAAPRP, the “shrunken log2 fold change” value was determined as 0.421.

As to RRIRIRPPRLPRPRPRPDYIPRP, the “shrunken log2 fold change” value is -0.183.

Regarding RRIRIRPPRLPRPRPRPVWWPRP, the “shrunken log2 fold change” value was determined as 0.0779.

Take RRIRGRPPRLPRPRPRPIWSPRP: the “shrunken log2 fold change” value turned out to be 0.15.

Take RRIRNRPPRLPRPRPRPPIMPRP: the “shrunken log2 fold change” value was -0.549.

Take RRIRGRPPRLPRPRPRPIAWPRP: the “shrunken log2 fold change” value stood at 1.05.

As for RRIRKRPPRLPRPRPRPVFDPRP, the “shrunken log2 fold change” value is 0.171.

Turning to RRIRTRPPRLPRPRPRPDIMPRP, the “shrunken log2 fold change” value is -0.624.

As for RRIRFRPPRLPRPRPRPNCNPRP, the “shrunken log2 fold change” value was -0.469.

As to RRIRCRPPRLPRPRPRPTLMPRP, the “shrunken log2 fold change” value was -0.0222.

Take RRIRERPPRLPRPRPRPMHDPRP: the “shrunken log2 fold change” value is -0.286.

For RRIRRRPPRLPRPRPRPHYIPRP, the “shrunken log2 fold change” value was -0.662.

On to RRIRYRPPRLPRPRPRPAVPPRP, for which the “shrunken log2 fold change” value is -0.625.

As to RRIRMRPPRLPRPRPRPNQQPRP, the “shrunken log2 fold change” value came to 0.0339.

For RRIRRRPPRLPRPRPRPEMVPRP, the “shrunken log2 fold change” value was determined as 0.0411.

Turning to RRIRKRPPRLPRPRPRPQNAPRP, the “shrunken log2 fold change” value was -0.0942.

Turning to RRIRFRPPRLPRPRPRPKDQPRP, the “shrunken log2 fold change” value is 0.0707.

Consider RRIRNRPPRLPRPRPRPHLLPRP, for which the “shrunken log2 fold change” value is -1.08.

For RRIRSRPPRLPRPRPRPCGIPRP, the “shrunken log2 fold change” value is -0.0619.

Consider RRIRFRPPRLPRPRPRPLFLPRP, for which the “shrunken log2 fold change” value is -0.478.

In the case of RRIRKRPPRLPRPRPRPSHGPRP, the “shrunken log2 fold change” value was -0.216.

For RRIRRRPPRLPRPRPRPETMPRP, the “shrunken log2 fold change” value is -0.0309.

For RRIRNRPPRLPRPRPRPYIPPRP, the “shrunken log2 fold change” value is -0.36.

As for RRIRWRPPRLPRPRPRPASHPRP, the “shrunken log2 fold change” value is 0.187.

Take RRIRRRPPRLPRPRPRPMQTPRP: the “shrunken log2 fold change” value is -0.00191.

Regarding RRIRGRPPRLPRPRPRPMQSPRP, the “shrunken log2 fold change” value was 0.47.

Take RRIRKRPPRLPRPRPRPHPPPRP: the “shrunken log2 fold change” value is 1.27.

Turning to RRIRWRPPRLPRPRPRPCIFPRP, the “shrunken log2 fold change” value is -0.683.

In the case of RRIRLRPPRLPRPRPRPYDVPRP, the “shrunken log2 fold change” value is -0.366.

RRIRPRPPRLPRPRPRPLWQPRP: the “shrunken log2 fold change” value turned out to be 0.0105.

As for RRIRQRPPRLPRPRPRPGFPPRP, the “shrunken log2 fold change” value was -0.0539.

With RRIRCRPPRLPRPRPRPMCFPRP, the “shrunken log2 fold change” value is 0.00335.

On to RRIRRRPPRLPRPRPRPNWVPRP, for which the “shrunken log2 fold change” value turned out to be 0.00352.

As to RRIRLRPPRLPRPRPRPYPGPRP, the “shrunken log2 fold change” value is -0.251.

In the case of RRIRPRPPRLPRPRPRPFIRPRP, the “shrunken log2 fold change” value worked out at 0.00477.

With RRIRERPPRLPRPRPRPVIGPRP, the “shrunken log2 fold change” value was -0.108.

Take RRIRYRPPRLPRPRPRPGLQPRP: the “shrunken log2 fold change” value is -0.0156.

RRIRGRPPRLPRPRPRPCYEPRP: the “shrunken log2 fold change” value was determined as 0.219.

Consider RRIRHRPPRLPRPRPRPGFVPRP, for which the “shrunken log2 fold change” value worked out at 0.607.

Consider RRIRDRPPRLPRPRPRPDWKPRP, for which the “shrunken log2 fold change” value turned out to be 0.0755.

Turning to RRIRMRPPRLPRPRPRPGGVPRP, the “shrunken log2 fold change” value is 0.952.

RRIRSRPPRLPRPRPRPCYDPRP: the “shrunken log2 fold change” value is -0.438.

For RRIRERPPRLPRPRPRPLFVPRP, the “shrunken log2 fold change” value was -0.799.

Regarding RRIRNRPPRLPRPRPRPTVNPRP, the “shrunken log2 fold change” value was -0.382.

As to RRIRMRPPRLPRPRPRPGASPRP, the “shrunken log2 fold change” value worked out at 0.854.

For RRIRYRPPRLPRPRPRPYYNPRP, the “shrunken log2 fold change” value is -0.231.

With RRIRARPPRLPRPRPRPTVLPRP, the “shrunken log2 fold change” value came out at 0.106.

With RRIRIRPPRLPRPRPRPLPLPRP, the “shrunken log2 fold change” value amounted to 0.0472.

Regarding RRIRWRPPRLPRPRPRPCCQPRP, the “shrunken log2 fold change” value was 0.0191.

On to RRIRTRPPRLPRPRPRPRISPRP, for which the “shrunken log2 fold change” value is -0.106.

For the sequence RRIRLRPPRLPRPRPRPRMQPRP, the “shrunken log2 fold change” value is -0.0604.

With RRIRNRPPRLPRPRPRPVPGPRP, the “shrunken log2 fold change” value worked out at 0.176.

Consider RRIRSRPPRLPRPRPRPMISPRP, for which the “shrunken log2 fold change” value is -0.453.

Turning to RRIRERPPRLPRPRPRPFIEPRP, the “shrunken log2 fold change” value was -0.59.

As to RRIRFRPPRLPRPRPRPTIIPRP, the “shrunken log2 fold change” value is -0.66.

Turning to RRIRRRPPRLPRPRPRPWMVPRP, the “shrunken log2 fold change” value was -0.151.

On to RRIRMRPPRLPRPRPRPYYVPRP, for which the “shrunken log2 fold change” value was -0.0412.

In the case of RRIRSRPPRLPRPRPRPMPPPRP, the “shrunken log2 fold change” value worked out at 0.435.

Take RRIRSRPPRLPRPRPRPLMTPRP: the “shrunken log2 fold change” value worked out at 0.653.

With RRIRWRPPRLPRPRPRPVWNPRP, the “shrunken log2 fold change” value is -0.232.

RRIRHRPPRLPRPRPRPYYDPRP: the “shrunken log2 fold change” value is -0.0623.

Consider RRIRVRPPRLPRPRPRPSSNPRP, for which the “shrunken log2 fold change” value was -0.375.

For RRIRRRPPRLPRPRPRPYKIPRP, the “shrunken log2 fold change” value was -0.158.

With RRIRMRPPRLPRPRPRPQNIPRP, the “shrunken log2 fold change” value was -0.726.

In the case of RRIRSRPPRLPRPRPRPHRQPRP, the “shrunken log2 fold change” value amounted to 0.114.

For RRIRHRPPRLPRPRPRPLSSPRP, the “shrunken log2 fold change” value was 0.0305.

Consider RRIRPRPPRLPRPRPRPCDWPRP, for which the “shrunken log2 fold change” value was 0.0592.

Turning to RRIRHRPPRLPRPRPRPSCRPRP, the “shrunken log2 fold change” value was -0.105.

As for RRIRWRPPRLPRPRPRPASPPRP, the “shrunken log2 fold change” value amounted to 0.131.

As to RRIRWRPPRLPRPRPRPISVPRP, the “shrunken log2 fold change” value is -0.186.

Take RRIRARPPRLPRPRPRPGQFPRP: the “shrunken log2 fold change” value worked out at 0.109.

RRIRKRPPRLPRPRPRPTELPRP: the “shrunken log2 fold change” value was 0.876.

With RRIRNRPPRLPRPRPRPRPEPRP, the “shrunken log2 fold change” value stood at 0.295.

Take RRIRRRPPRLPRPRPRPWKGPRP: the “shrunken log2 fold change” value was -0.209.

With RRIRYRPPRLPRPRPRPKWLPRP, the “shrunken log2 fold change” value is -0.221.

On to RRIRFRPPRLPRPRPRPFCCPRP, for which the “shrunken log2 fold change” value is -0.225.

(Values after the supplement of paper PMC9112550, “Optimization of the antimicrobial peptide Bac7 by deep mutational scanning” (BMC Biology, 2022).)
